Several values for one entry are separate records, joined by “and”; a condition that tells them apart may be missing. Equal values may be shown once.
Tests used:
[1] = tested on: aPTT clotting time in murine plasma; assay: aPTT clotting assay in murine plasma with rhAPC; format: biochemical, mouse
Protocol: (§1) APC-mediated inactivation of FVa was analyzed in ETP assays and aPTT clotting assays. FVa mutants were incubated with equal volumes of either recombinant human APC (Xigris®) or buffer in human and murine Balb/c plasma.
(§2) Plasma (50 μL) was mixed with 50 μL of a PTT reagent (APTT-XL, Pacific Hemostasis) and incubated at 37° C. for 3 minutes in the presence of FVa either with recombinant human APC or buffer. Following addition of 25 μL of 50 mM CaCl2 in HBS, 0.5% BSA, the clotting time was recorded using an ST4 coagulometer (Diagnostica Stago).

Balb/c mice [2] = assay: Liver laceration bleeding assay, APC-induced bleeding in Balb/c mice; format: in vivo; conditions: for mortality rate: APC-induced bleeding after liver laceration
Protocol: Mice were anesthetized with Isofluorane 3% and the abdomen was opened by substernal blunt midline dissection. […] Immediately after laceration mice were positioned prone into a small weighing dish (8 cm diameter) filled with saline (37° C., 13 mL), transferred into the anesthesia chamber which rested on a heating pad (37° C.). Anesthesia was maintained at 3% Isofluorane and dishes were changed after 10 minutes to collect blood for the first and second 10 minutes separately. Blood loss was determined as described for the tail clip model. Groups of Balb/c mice were injected intravenously (tail vein) with equal volumes (200 μL) of ^superFVa or saline 2 minutes prior to intravenous injection of plasma-derived human APC, followed immediately by liver laceration. All agents were diluted in sterile sodium chloride 0.9% for injection (Hospira Inc).

Balb/c mice [3] = assay: Ex vivo whole blood aPTT after intravenous APC in Balb/c mice; set-up: species or system mouse; conditions: for mean whole blood aPTT clotting time: 2 minutes after intravenous APC 0.5 mg/kg, saline 30 sec
Protocol: Recombinant murine APC was administered intravenously to Balb/c mice by tail vein injection 2 minutes prior to retroorbital blood harvest in siliconized microcapillaries (75 μL) prefilled with 20 μL Sodium-Citrate (3.8%). Whole blood aPTT was performed immediately, whereby 50 μL of blood were mixed with 50 μL of aPTT reagent (APTT-XL, Pacific Hemostasis) and incubated at 37° C. for 3 minutes in the presence of FVa or buffer. Following addition of 25 μL of 130 mM CaCl2 in HBS, 0.5% BSA, the clotting time was recorded using an ST4 coagulometer (Diagnostica Stago).

[4] = tested on: thrombin generation in normal human plasma with rhAPC; assay: Thrombin generation in normal human plasma in the presence of rhAPC; format: biochemical; conditions: human plasma
Protocol: (§3) BU titer values for FVIII antibodies added to FVIII-deficient plasma were determined using a modified Nijmegen Bethesda assay (Barrow and Lollar; JTH 2006, 4:2223-2229). Briefly, antibody was serially diluted in HBS with 0.05% Tween 80 and mixed 1:1 with pooled normal plasma that was supplemented with 100 mM Imidazole, pH 7.0. Samples were incubated at 37° C. for 2 hours then assayed by aPTT with APTT XL reagent (Pacific Hemostasis). A standard curve was derived from a serial dilution of normal plasma into FVIII deficient plasma that was also mixed 1:1 with HBST and incubated at 37° C. for 2 hours. Percent FVIII activity was plotted versus mg/ml of antibody and residual activity of 50% was defined as 1 BU/ml. In addition, endogenous thrombin potential (ETP) assays were performed as described (3). Briefly FVa mutants or saline were added to human or murine plasma (George King Bio-Medical; mouse source, 50% v/v) supplemented with […] corn trypsin inhibitor (Haematologic Technologies), 10 mM CaCl2, 10 μM phospholipid vesicles (80% phosphatidylcholine, 20% phosphatidylserine, prepared as described (6), 0.2 pM soluble tissue factor (Innovin®, Dade Behring), and 0.4 mM Z-Gly-Gly-Arg-AMC (thrombin substrate, Bachem) in HBS. After mixing, 100 μL was transferred to a FluoroNunc microtiter plate at 37° C. to monitor fluorescence (excitation at 360 nm/emission at 460 nm; Gemini EM fluorescent plate reader (Molecular Devices)). Fluorescence time course data were converted to nM thrombin as described (7). ETP, defined as the area under the curve, was determined using Prism 5.04 (Graphpad).
as §1

[5] = tested on: aPTT clotting time in human plasma; assay: aPTT clotting assay in human plasma with rhAPC; format: biochemical; conditions: human plasma
Protocol: as §1, §2

Balb/c mice [6] = assay: Tail clip bleeding assay, APC-induced bleeding in Balb/c mice; format: in vivo, mouse
Protocol: Mice were anesthetized with Isoflurane 3%, placed on temperature controlled heating pads (37° C.), and the distal portion of the tail was cut at 1.5 mm diameter after which the tail was immersed in a predefined volume of 37° C. saline (0.9% NaCl) for 20 minutes. To study effects on bleeding and clot stability, tubes were changed after 10 minutes to collect blood for the first and second 10 minutes separately. Blood loss was determined by the hemoglobin concentration in the saline solution after red cell lysis with 2% acetic acid and measured by absorbance at 490 nm. Using a hemoglobin standard derived from defined blood volumes, blood loss was calculated assuming a hematocrit of 46% and expressed in μL/g body weight. Groups of Balb/c mice were injected intravenously (tail vein) with equal volumes (200 μL) of ^superFVa or saline 2 minutes prior to intravenous injection of rhAPC (Xigris®). Immediately after APC injection tail cut was performed. All agents were diluted in sterile sodium chloride 0.9% for injection (Hospira Inc).

[7] = tested on: thrombin generation in murine Balb/c plasma with rhAPC; assay: Thrombin generation in murine Balb/c plasma in the presence of rhAPC; format: biochemical, mouse
Protocol: as §3, §1

[8] = tested on: thrombin generation in normal human plasma; assay: Thrombin generation in NHP in the presence of rivaroxaban or apixaban; format: biochemical; conditions: dose titration in NHP
Protocol: Thrombin generation or Endogenous Thrombin Potential (ETP) assays were performed as described. Briefly, plasma samples supplemented with CTI, TF, PCPS were preincubated […] in the presence or absence of rivaroxaban, apixaban, Kcentra®, NovoSeven® or ^superFVa. Thrombin generation was initiated by addition of CaCl2 and Z-Gly-Gly-Arg-AMC in HBS/0.5% BSA. The final reaction mixture contained, 50% plasma, 0.725 μM CTI, 0.2 Pm TF, 4 μM PCPS vesicles, 0.5 mM Z-GGR-AMC, 7.6 mM CaCl2 in a total volume of 100 μl. Concentrations of rivaroxaban, apixaban, Kcentra®, NovoSeven® or ^superFVa are indicated in the result section and in the figure legends. Fluorescence was measured at excitation/emission wavelengths of […] using Gemini EM fluorescent plate reader (Molecular Devices). Fluorescence time course data were converted to Nm thrombin as described. ETP, defined as the area under the curve (AUC) and the peak height were determined using Origin software.

[9] = plasma derived human APC 1.25 mg/kg
[10] = concentrations where ^superFVa restores

Molecule: APC: Activated Protein C; recombinant human (Xigris®, Eli Lilly) or plasma-derived human APC
- optimal concentration for aPTT prolongation to ~100 seconds [1]: 25 nM
- mean blood loss (Balb/c mice [2]; APC 1.25 mg/kg iv, 20 minutes after liver laceration): 40 µL/g
- mean blood loss (Balb/c mice [2]; APC 1.25 mg/kg iv, 20 minutes after liver laceration, listed as wt APC): 49 µL/g
- mean blood loss (Balb/c mice [2]; APC 1.25 mg/kg, first 10 minutes after liver laceration): 35.1 µL/g
- mortality rate (Balb/c mice [2]): 54% and ~50%
- mortality rate (Balb/c mice [2]; listed as wt APC): ~40%
- mice died during the 1st 10 minutes after injury (Balb/c mice [2]; [9]): Four of 13
- more mice died during the 2nd 10 minutes (Balb/c mice [2]; [9]): Three
- mean whole blood aPTT clotting time (Balb/c mice [3]): 67 s
- optimal concentration for maximal suppression of ETP [4]: 5 nM
- optimal concentration for aPTT prolongation to ~100 seconds [5]: 10 nM
- mean blood loss (Balb/c mice [6]; APC 1.25 mg/kg iv, combined 20 minutes after tail clip): 27 µL/g
- mean blood loss (Balb/c mice [6]; APC 1.25 mg/kg, first 10 minutes after tail clip): 13.7 µL/g
- mean blood loss (Balb/c mice [6]; APC 1.25 mg/kg, second 10 minutes after tail clip): 13.2 µL/g
- mean blood loss (Balb/c mice [6]; APC, first 10 minutes after tail clip): 13.7 µL/g
- dose that resulted in notable bleeding (Balb/c mice [6]; single intravenous administration, in vivo dose response): 1.25 mg/kg
- mean blood loss (Balb/c mice [6]; wt APC 1.25 mg/kg iv, tail clip): 27 µL/g
- optimal concentration for maximal suppression of ETP [7]: 100 nM

Molecule: COc1ccc(-n2nc(C(N)=O)c3c2C(=O)N(c2ccc(N4CCCCC4=O)cc2)CC3)cc1 [apixaban, Apixaban]
- concentration for optimal suppression of ETP [8]: 200 nM

Molecule: O=C(NC[C@H]1CN(c2ccc(N3CCOCC3=O)cc2)C(=O)O1)c1ccc(Cl)s1 [rivaroxaban, Rivaroxaban]
- concentration for optimal suppression of ETP [8]: 200 nM

Molecule: FVa: wild-type recombinant human activated Factor V used as comparator [reference compound]
- aPTT ([1]; 5 U/mL FVa variants, APC, ~100 seconds without FVa): ~70 s
- effect on whole blood aPTT clotting times (Balb/c mice [3]; 1 nM added to whole blood after iv APC 0.5 mg/kg): failed to show a significant effect
- mean whole blood aPTT (Balb/c mice [3]; FVa variant added ex vivo to whole blood drawn after APC 0.5 mg/kg injection): 50 s
- effect on thrombin generation suppressed by APC [4, 10]: did not show effects
- aPTT ([5]; 0.05 U/mL FVa variants, 10 nM APC, ~100 seconds without FVa): ~80 s
- effect on thrombin generation suppressed by APC [7, 10]: did not show effects

B1: murine recombinant wt APC: Recombinant murine APC purified and prepared as previously described (protein)
chain: ANSFLEEMRPGSLERECMEEICDFEEAQEIFQNVEDTLAFWIKYFDGDQCSAPPLDHQCDSPCCGHGTCIDGIGSFSCSCDKGWEGKFCQQELRFQDCRVNNGGCLHYCLEESNGRRCACAPGYELADDHMRCKSTVNFPCGKLGRWIEKKRKILKRDTDLEDELEPDPRIVNGTLTKQGDSPWQAILLDSKKKLACGGVLIHTSWVLTAAHCVEGTKKLTVRLGEYDLRRRDHWELDLDIKEILVHPNYTRSSSDNDIALLRLAQPATLSKTIVPICLPNNGLAQELTQAGQETVVTGWGYQSDRIKDGRRNRTFILTFIRIPLVARNECVEVMKNVVSENMLCAGIIGDTRDACDGDSGGPMVVFFRGTWFLVGLVSWGEGCGHTNNYGIYTKVGSYLKWIHSYIGEKGVSLKSQKL
- mean whole blood aPTT clotting time (Balb/c mice [3]): ~60 s

From patent US10407488B2, “Therapy for treatment or prevention of conditions associated with bleeding or hypocoagulation” (THE REGENTS OF THE UNIVERSITY OF CALIFORNIA, priority 2013, dated 2019)
